Source: patent publication US20220088146A1 (PALATIN TECHNOLOGIES, published 2022)
Each block holds one binder with its values, some of them ahead of it. Numbered stars: 1 amine (or outer) side, 2 acyl side, 3 side chain; on linkers, the order of the positions; unused ones are H or OH. Bridge positions count the residues as written; N and C are the ends. Square brackets hold non-standard residues; d marks the D form. * marks the point of attachment. Cyclohexanecarbonyl = O=C(C1CCCCC1)*; Cyclohexylacetyl = O=C(CC1CCCCC1)*; Cyclopentylacetyl = O=C(CC1CCCC1)*; Cyclopropanecarbonyl = O=C(C1CC1)*; Hydrocinnamoyl = O=C(CCc1ccccc1)*; Suc = O=C(CCC(=O)[*:2])[*:1]; Heptanoyl = CCCCCCC(=O)*; Nle = CCCC[C@H](N)C(=O)O; Dab = NCC[C@H](N)C(=O)O; Dap = NC[C@H](N)C(=O)O; Hexanoyl = CCCCCC(=O)*; Pentanoyl = CCCCC(=O)*; PhAc = O=C(Cc1ccccc1)*; Butyryl = CCCC(=O)*

Columns and labels:
[1] = biological target: T1, human melanocortin-4 receptor (human, UniProt P32245 1-332); assay: [I125]-NDP-α-MSH competition, hMC4r HEK-293 membranes
T1 construct: whole, on cells; Ki assay used membrane homogenates of HEK-293 cells expressing recombinant hMC4r; also called MC4r; hMC4r
T1 sequence (P32245 whole entry): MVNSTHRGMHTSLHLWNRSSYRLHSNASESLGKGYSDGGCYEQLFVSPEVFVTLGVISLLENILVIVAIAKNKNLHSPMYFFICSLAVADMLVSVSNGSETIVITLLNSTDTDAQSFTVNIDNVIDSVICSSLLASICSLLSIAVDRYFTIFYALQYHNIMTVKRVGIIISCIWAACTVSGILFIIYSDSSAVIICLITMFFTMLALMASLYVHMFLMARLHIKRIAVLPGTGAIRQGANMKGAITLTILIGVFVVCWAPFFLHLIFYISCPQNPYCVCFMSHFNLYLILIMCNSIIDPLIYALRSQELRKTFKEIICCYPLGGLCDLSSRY

[2] = biological target: T2, human melanocortin-1 receptor (human, UniProt Q01726 1-317); assay: cell-based or functional assay
T2 sequence (Q01726 whole entry): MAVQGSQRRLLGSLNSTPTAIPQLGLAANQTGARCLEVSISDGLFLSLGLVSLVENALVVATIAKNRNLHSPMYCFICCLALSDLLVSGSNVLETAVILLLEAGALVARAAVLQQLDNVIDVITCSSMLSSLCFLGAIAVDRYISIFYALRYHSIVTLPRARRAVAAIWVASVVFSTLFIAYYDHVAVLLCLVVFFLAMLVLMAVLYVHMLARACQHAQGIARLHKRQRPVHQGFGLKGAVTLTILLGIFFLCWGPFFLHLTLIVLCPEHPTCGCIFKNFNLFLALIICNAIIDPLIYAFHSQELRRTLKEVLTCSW

[3] = biological target: T2, human melanocortin-1 receptor; assay: [I125]-NDP-α-MSH competition, hMC1r HEK-293 membranes
melanocortin-2 receptor = melanocortin-2 receptor (UniProt Q01718 1-297); assay: cell-based or functional assay
Chain of melanocortin-2 receptor (Q01718 whole entry): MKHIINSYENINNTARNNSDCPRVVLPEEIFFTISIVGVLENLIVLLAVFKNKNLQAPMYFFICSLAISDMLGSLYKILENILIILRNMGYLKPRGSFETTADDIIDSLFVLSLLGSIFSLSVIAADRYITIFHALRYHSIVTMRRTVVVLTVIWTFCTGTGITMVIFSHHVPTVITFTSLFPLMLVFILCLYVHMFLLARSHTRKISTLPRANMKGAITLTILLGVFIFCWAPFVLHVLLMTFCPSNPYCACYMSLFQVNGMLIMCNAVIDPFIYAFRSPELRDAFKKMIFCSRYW

melanocortin-3 receptor = melanocortin-3 receptor (UniProt P41968 1-323); assay: cell-based or functional assay
Chain of melanocortin-3 receptor (P41968 whole entry): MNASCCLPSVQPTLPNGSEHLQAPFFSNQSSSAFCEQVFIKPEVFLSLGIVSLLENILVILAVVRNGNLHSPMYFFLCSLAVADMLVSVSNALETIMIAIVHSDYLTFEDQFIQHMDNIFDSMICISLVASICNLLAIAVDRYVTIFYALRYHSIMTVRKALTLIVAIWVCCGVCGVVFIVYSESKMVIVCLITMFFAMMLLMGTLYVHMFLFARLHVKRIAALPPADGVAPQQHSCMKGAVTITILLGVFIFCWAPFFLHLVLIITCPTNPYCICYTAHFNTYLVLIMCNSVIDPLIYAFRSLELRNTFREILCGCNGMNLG

melanocortin-5 receptor = melanocortin-5 receptor (UniProt P33032 1-325); assay: cell-based or functional assay
Chain of melanocortin-5 receptor (P33032 whole entry): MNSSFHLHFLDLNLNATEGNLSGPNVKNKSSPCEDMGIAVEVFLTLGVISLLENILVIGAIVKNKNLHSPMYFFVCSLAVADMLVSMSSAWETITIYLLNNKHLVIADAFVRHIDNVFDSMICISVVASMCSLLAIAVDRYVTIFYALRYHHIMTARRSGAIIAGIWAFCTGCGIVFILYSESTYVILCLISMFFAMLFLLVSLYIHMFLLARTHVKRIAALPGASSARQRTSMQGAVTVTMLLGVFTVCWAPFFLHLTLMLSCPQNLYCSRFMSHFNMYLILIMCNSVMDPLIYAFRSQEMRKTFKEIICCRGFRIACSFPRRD

Ki [1]: 205 nM
MC-1 Emax (average; cAMP HBL) [2]: 82%
Binder: PhAc-EH[dF]R[Dab]W-NH2 (lactam 1-5, also called 9.23) [phenyl acetyl-cyclo(Glu-His-D-Phe-Arg-Dab)-Trp-NH2]

Ki [3]: 310 nM
Ki [1]: 10000 nM
MC-1 EC50 (average; cAMP HBL) [2]: 31 nM
MC-1 Emax (average; cAMP HBL) [2]: 80%
B1: cyclo(Suc-His-Phe-Arg-Dab)-Trp-NH2 (peptide)
peptide: [Suc]HFR[Dab]W-NH2
modifications: lactam N-5
SMILES: N=C(N)NCCC[C@@H]1NC(=O)[C@H](Cc2ccccc2)NC(=O)[C@H](Cc2c[nH]cn2)NC(=O)CCC(=O)NCC[C@@H](C(=O)N[C@@H](Cc2c[nH]c3ccccc23)C(N)=O)NC1=O
notes: also called 9.14

Ki [3]: 3 nM
Ki [1]: 640 nM
MC-1 Emax (average; cAMP HBL) [2]: 83%
B2: cyclo-propanoyl-cyclo(Glu-His-D-Phe-Arg-Dab)-Trp-NH2 (peptide)
peptide: Cyclopropanecarbonyl-EH[dF]R[Dab]W-NH2
modifications: lactam 1-5
SMILES: N=C(N)NCCC[C@@H]1NC(=O)[C@@H](Cc2ccccc2)NC(=O)[C@H](Cc2c[nH]cn2)NC(=O)[C@@H](NC(=O)C2CC2)CCC(=O)NCC[C@@H](C(=O)N[C@@H](Cc2c[nH]c3ccccc23)C(N)=O)NC1=O
notes: also called 9.19

Functional - CEREP (EC50; nM) (melanocortin-2 receptor): > 10000 nM
Binder: Ac-SYSMEHFRWGKPV-NH2 (ligand) [α-MSH (Ac-Ser-Tyr-Ser-Met-Glu-His-Phe-Arg-Trp-Gly-Lys-Pro-Val-NH2)]

Ki [1]: 100 nM
MC-1 Emax (average; cAMP HBL) [2]: 87%
Binder: Heptanoyl-EH[dF]R[Dab]W-NH2 (lactam 1-5, also called 9.18) [CH3-(CH2)5-C(═O)-cyclo(Glu-His-D-Phe-Arg-Dab)-Trp-NH2]

Ki [1]: 10000 nM
MC-1 Emax (average; cAMP HBL) [2]: 88%
Binder: Ac-[Nle]EHFR[Dab]W-NH2 (lactam 2-6, also called 9.8) [Ac-Nle-cyclo(Glu-His-Phe-Arg-Dab)-Trp-NH2]

Ki [1]: 45 nM
MC-1 Emax (average; cAMP HBL) [2]: 97%
Binder: Ac-[Nle]EH[dF]RKW-NH2 (lactam 2-6, also called 9.1) [Ac-Nle-cyclo(Glu-His-D-Phe-Arg-Lys)-Trp-NH2]

Ki [1]: 510 nM
MC-1 Emax (average; cAMP HBL) [2]: 75%
Binder: Ac-FEH[dF]R[Dab]W-NH2 (lactam 2-6, also called 9.13) [Ac-Phe-cyclo(Glu-His-D-Phe-Arg-Dab)-Trp-NH2]

Ki [1]: 93 nM
MC-1 Emax (average; cAMP HBL) [2]: 83%
Binder: Cyclopentylacetyl-EH[dF]R[Dab]W-NH2 (lactam 1-5, also called 9.21) [cyclopentyl acetyl-cyclo(Glu-His-D-Phe-Arg-Dab)-Trp-NH2]

Ki [1]: 365 nM
MC-1 Emax (average; cAMP HBL) [2]: 89%
Binder: Pentanoyl-EH[dF]R[Dab]W-NH2 (lactam 1-5, also called 9.16) [CH3-(CH2)3-C(═O)-cyclo(Glu-His-D-Phe-Arg-Dab)-Trp-NH2]

Ki [1]: 165 nM
MC-1 Emax (average; cAMP HBL) [2]: 79%
Binder: Cyclohexanecarbonyl-EH[dF]R[Dab]W-NH2 (lactam 1-5, also called 9.20) [cyclo-hexanoyl-cyclo(Glu-His-D-Phe-Arg-Dab)-Trp-NH2]

Ki [1]: 63 nM
MC-1 Emax (average; cAMP HBL) [2]: 85%
Binder: Cyclohexylacetyl-EH[dF]R[Dab]W-NH2 (lactam 1-5, also called 9.22) [cyclohexyl acetyl-cyclo(Glu-His-D-Phe-Arg-Dab)-Trp-NH2]

Ki [1]: 285 nM
MC-1 Emax (average; cAMP HBL) [2]: 83%
Binder: Hydrocinnamoyl-EH[dF]R[Dab]W-NH2 (lactam 1-5, also called 9.24) [phenyl propanoyl-cyclo(Glu-His-D-Phe-Arg-Dab)-Trp-NH2]

Functional - CEREP (EC50; nM) (melanocortin-2 receptor): > 10000 nM
Functional - CEREP (EC50; nM) (melanocortin-3 receptor): > 10000 nM
Functional - CEREP (EC50; nM) (melanocortin-5 receptor): > 10000 nM
Binder: Ac-[Nle]EH[dF]R[Dap]W-NH2 (lactam 2-6) [Ac-Nle-cyclo(Glu-His-D-Phe-Arg-Dap)-Trp-NH2]

Ki [1]: 540 nM
MC-1 Emax (average; cAMP HBL) [2]: 87%
Binder: Ac-[Nle]CH[dF]RCW-NH2 (disulfide 2-6, also called 9.5) [Ac-Nle-cyclo(Cys-His-D-Phe-Arg-Cys)-Trp-NH2]

Ki [1]: 890 nM
MC-1 Emax (average; cAMP HBL) [2]: 91%
Binder: Butyryl-EH[dF]R[Dab]W-NH2 (lactam 1-5, also called 9.15) [CH3-(CH2)2-C(═O)-cyclo(Glu-His-D-Phe-Arg-Dab)-Trp-NH2]

Ki [1]: 110 nM
MC-1 Emax (average; cAMP HBL) [2]: 90%
Binder: Hexanoyl-EH[dF]R[Dab]W-NH2 (lactam 1-5, also called 9.17) [CH3-(CH2)4-C(═O)-cyclo(Glu-His-D-Phe-Arg-Dab)-Trp-NH2]
